Assays:
Assay in all cases: purified protein
purified protein [1] = substrate: NC(=O)C1=CN([C@@H]2O[C@H](COP(=O)(O)OP(=O)(O)OC[C@H]3O[C@@H](n4cnc5c(N)ncnc54)[C@H](O)[C@@H]3O)[C@@H](O)[C@H]2O)C=CC1; type: biochemical, Rhodococcus opacus; details: 500 μM 4-hydroxybenzoate, 60 μM FAD, 50 mM Tris/sulfate pH 7.5, 30°C
purified protein [2] = substrate: NC(=O)C1=CN([C@@H]2O[C@H](COP(=O)(O)OP(=O)(O)OC[C@H]3O[C@@H](n4cnc5c(N)ncnc54)[C@H](OP(=O)(O)O)[C@@H]3O)[C@@H](O)[C@H]2O)C=CC1; type: biochemical, Rhodococcus opacus; details: 500 μM 4-hydroxybenzoate, 60 μM FAD, 50 mM Tris/sulfate pH 7.5, 30°C
purified protein [3] = substrate: O=C(O)c1ccc(O)cc1; type: biochemical, Rhodococcus opacus; details: 175 μM NADH, 60 μM FAD, 50 mM Tris/sulfate pH 7.5, 30°C
purified protein [4] = substrate: NC(=O)C1=CN([C@@H]2O[C@H](COP(=O)(O)OP(=O)(O)OC[C@H]3O[C@@H](n4cnc5c(N)ncnc54)[C@H](O)[C@@H]3O)[C@@H](O)[C@H]2O)C=CC1; type: biochemical, Cupriavidus pinatubonensis; details: 500 μM 4-hydroxybenzoate, 60 μM FAD, 50 mM Tris/sulfate pH 7.5, 30°C
purified protein [5] = substrate: O=C(O)c1ccc(O)cc1; type: biochemical, Cupriavidus pinatubonensis; details: 175 μM NADH, 60 μM FAD, 50 mM Tris/sulfate pH 7.5, 30°C
purified protein [6] = substrate: NC(=O)C1=CN([C@@H]2O[C@H](COP(=O)(O)OP(=O)(O)OC[C@H]3O[C@@H](n4cnc5c(N)ncnc54)[C@H](OP(=O)(O)O)[C@@H]3O)[C@@H](O)[C@H]2O)C=CC1; type: biochemical, Cupriavidus necator; details: 500 μM 4-hydroxybenzoate, 60 μM FAD, 50 mM Tris/sulfate pH 7.5, 30°C
purified protein [7] = substrate: O=C(O)c1ccc(O)cc1; type: biochemical, Cupriavidus necator; details: 175 μM NADPH, 60 μM FAD, 50 mM Tris/sulfate pH 7.5, 30°C

B1: PHBHRo1CP (Rhodococcus opacus) (protein)
chain: MNTQVGIVGGGPAGLMLSHLLHLKGIDSVVLESRTREEVEGTIRAGVLEQNTVDLMVDTGLGDRVKREGLTHHGIELRFGGRGHRIDFDELTNGRAVTVYPQHEVLKDLIARRLEDDGDIRFGVSDVQVHDHTSDNPKITYLDADGNEQTLTCALVAGCDGSRTSTRGLIPETTVRTDHFRQYPFAWFGILAEAPPSSEELIYANHPRGFALISTRTPEVQRHYLQVDPDDSVDNWSDDRIWSELHARVDGEGAEIKDGKIFQKSILQFRSFVCEPMQHGNLFLAGDAAHTVPPTGAKGMNLAIADVYFLSQAMAEYFATRSRAGLEGYTDSVLPRVWRTQHFSWWMSSMLHRLPDETGFGHKRQVAELDMVTRSVAGRTLIAENYVGTPLG
notes: His10-tagged, pET16bp, E. coli, Ni-chelate purified; motif 32-ESRTREEVEGT
Protein B1 has a Km (purified protein [1]) of 39.7 ± 5.0 µM, a Vmax (purified protein [1]) of 20 µmol/min/mg and a kcat (purified protein [1]) of 15.3 ± 0.7 s⁻¹. The Km (purified protein [2]) was 153 ± 16 µM, the Vmax (purified protein [2]) was 19.8 µmol/min/mg and the kcat (purified protein [2]) was 15 ± 1.5 s⁻¹. The Km (purified protein [3]) was 30.4 ± 2.4 µM, the Vmax (purified protein [3]) was 16.8 µmol/min/mg and the kcat (purified protein [3]) was 12.9 ± 0.2 s⁻¹.

B2: PHBHCn1 (Cupriavidus pinatubonensis JMP134) (protein)
chain: MRTRVAIIGAGPAGLLLGHLLQRAGIDSVILEDCTQAHVEARIRAGVLEQGTVDLLEEAGVAARLREQGMVHHGIDLLFDGQRHRIDLSGLTGGRAITVYGQHEVVRDLIAARQACGAPLLFEVSQVALHGLDTQSPSLSFEHGGQRHVLACDFIAGCDGSHGVSRHAVPAGALQVFERSYPFAWLGILASAAPAAQELIYASHARGFALFSMRSPEITRLYLQCRPDEDLAGWTDRRIWDELHARLETGDGWHLNEGPVLQKGITPMRSLVTEPMQYGRLFLAGDAAHIVPPTGAKGMNLAVADVRNLAHALVTHYRHGRDDLLAGYSSACLARVWRAEHFSWWMTSLLHRFDDHTPFTARLQHAELAYVCASQAASRMLAENYVGLPFAPLPA
notes: N-terminal His10-tag, codon-optimized gene, E. coli BL21 (DE3) pLysS, Ni-chelate purified; motif 32-EDCTQAHVEAR
B2 gave a Km (purified protein [4]) of 49.8 ± 5.6 µM, a Vmax (purified protein [4]) of 12.3 µmol/min/mg and a kcat (purified protein [4]) of 9.4 ± 0.4 s⁻¹. For the same protein, the Km (purified protein [5]) was 20.2 ± 2.3 µM, the Vmax (purified protein [5]) was 9.9 µmol/min/mg and the kcat (purified protein [5]) was 7.6 ± 0.2 s⁻¹.

B3: PHBHCn2 (Cupriavidus pinatubonensis JMP134) (protein)
chain: MRTQVAIIGAGPAGLLLGQLLSRAGIDNIIVEQRSPEYVLGRIRAGILESVTVDALERAGVAARLHDEGLPHAGIELSFNGQRHRIDLQALTGRTVTVYGQTEVTRDLMAARQAEGTTTIYEAADVSLHGFDGTRPLVRYRKDGATHEIECDYIAGCDGFHGVSRQSVPATSSQLFERVYPFGWLGILSDTPPVADELIYASHERGFALCSMRSKARSRYYVQVPSTERVEDWSDERFWDELRSRLDPQAAESLVTGPSIEKSIAPLRSFVCEPMRFGRLFLAGDAAHIVPPTGAKGLNLAASDVLYLADALTARYQQDDLRELDSYSEKCLRRIWKAERFSWWMTSLLHRFPDADAFSARIQQAELDFLVSSEAACKALAENYVGLPY
notes: N-terminal His10-tag, codon-optimized gene, E. coli BL21 (DE3) pLysS, Ni-chelate purified; motif 32-EQRSPEYVLGR
In the case of B3, the Km (purified protein [6]) is reported as 146 ± 20 µM, the Vmax (purified protein [6]) is reported as 49.1 µmol/min/mg and the kcat (purified protein [6]) is reported as 37 ± 2.8 s⁻¹. It also gave a Km (purified protein [7]) of 26.4 ± 4.4 µM, a Vmax (purified protein [7]) of 27 µmol/min/mg and a kcat (purified protein [7]) of 18 ± 0.7 s⁻¹.
